The record followed here is patent US20170114100A1 (ALBERT EINSTEIN COLLEGE OF MEDICINE, published 2017).

The data set concerns the molecule itself. Kind of data set: SEC dimerization assay (FIG. 4A).

B1: BAX 4MA (C62S, C126S, V121C, I136C), internally cross-linked mutant (other)
chain: MDGSGEQPRGGGPTSSEQIMKTGALLLQGFIQDRAGRMGGEAPELALDPVPQDASTKKLSESLKRIGDELDSNMELQRMIAAVDTDSPREVFFRVAADMFSDGNFNWGRVVALFYFASKLCLKALSTKVPELIRTCMGWTLDFLRERLLGWIQDQGGWDGLLSYFGTPTWQTVTIFVAGVLTASLTIWKKMG
modifications: internal cross-link between the introduced cysteines (V121C, I136C), reduced by DTT
notes: also called BAX 4MA dimer; 4MA monomer
Take B1: the binding result was “binds”.
